Assay: soluble on expression in E. coli; label from the status in PepcDB or PDB records

Sequence	soluble on expression in E. coli
MKIVIAPDSFKESLSALEVAEAVERGFRTVFPEAEYVKVPMADGGEGTVRSLVDATGGRIVETEVTGPLGEPVRAFFGLLGDGKTAVIEMAAASGLHLVPRDRRNPLVTTTRGTGELILAALDAGATHLIIGIGGSATNDGGAGMVQALGGRLLDEDGCDIGPGGGALADLHAIDLSGLDPRLGGVRIDVACDVDNPLTGPNGASAIFGPQKGATPDMVAVLDRNLAHYADVIRRDLGKQVGDIPGAGAAGGLGAGLLAFLPAELKRGVEIVIETVQLAERVKDADLVITGEGRIDGQTVFGKTPIGVAKTAKQFGVPVIGIAGSLGDDSAVVLDHGIDALFTIVPGVVPLEKALEQAEHYVTQTARHIASVYRLGQMKGTSSS	not soluble
MKEESRAKTGRKPKSDPADYKYSFRLNAGENMRFEKLVTESEAKDKTRFIKKAIFGGTIKVVKIDKATMDYYIRLTEFHRQFQTIGNNYNQVVRAIRSNFGEKRAMSLLYKLEKMTLELMLLTKKVIALTEEYQKKWLQK	not soluble
MAHHHHHHMDIIKNETKEMDMYNPSVSINFEKGILKNSCDTPKDTKLEKLKREYNILTSSYDYNSGNKKERRNIWKEKVKHNIASKNKKKMVKIKKEENNNELENKKGENLLMYVNDKNSNLNVYIDENDLFEETPNISSNTLLSYISNIFLRKKNIYEIKKCDFIKEVNTDESLKRNFIPPVDILYDDKKVLFLFFISGNLQNFHVTSNNNYLTISGEKIPYQVQDHTSYFSHEIKKGYFIRTYCFMKTFDKEKIYYEQNNGVIKIYVYICDDNNI	not soluble
MSLKLIKGLNLLRPCSDTPFLENAFVVIDGDEFLSVGTTEPEGEFEEVLDCGGKFALPGLINAHHHLYSALAVGMPPPAKTPLNFTQILEEVWWKLDLALDHDATQASFESGLIDSLKAGTTTVIDHHCSPSFIEGSLSLLGDTGKKLGIATGLAFEVTDRNGQELFERSLQENLDAAEKHSQDQELAALLGLHASFTLSEESLKKVAEVHSKRSNWGIHTHLSEDRADEEDARNRGHASVVERLDHFGLINQSAMLIHGVHSLESDAELIQKHKAHLVHNPTSNANNRIGMLSNQAAERMKPGLGTDGMQSNMIREAKEGMLIRSSHMSAGDAGVDYQAILFDHNPRIASAVFGRSIGRVEPGYRADLAIYDYHPRTEVHSDNVFGHVFFGLGEPCDVMSGGLMRVQNHLLQGNDEQAAKQEAAEQSRKLWQKMQEGHHHHHH	soluble
MDLNFKELAEAKKDAILKDLEELIAIDSSEDLENATEEYPVGKGPVDAMTKFLSFAKRDGFDTENFANYAGRVNFGAGDKRLGIIGHMDVVPAGEGWTRDPFKMEIDEEGRIYGRGSADDKGPSLTAYYGMLLLKEAGFKPKKKIDFVLGTNEETNWVGIDYYLKHEPTPDIVFSPDAEYPIINGEQGIFTLEFSFKNDDTKGDYVLDKFKAGIATNVTPQVTRATISGPDLEAVKLAYESFLADKELDGSFEINDESADIVLIGQGAHASAPQVGKNSATFLALFLDQYAFAGRDKNFLHFLAEVEHEDFYGKKLGIFHHDDLMGDLASSPSMFDYEHAGKASLLNNVRYPQGTDPDTMIKQVLDKFSGILDVTYNGFEEPHYVPGSDPMVQTLLKVYEKQTGKPGHEVVIGGGTYGRLFERGVAFGAQPENGPMVMHAANEFMMLDDLILSIAIYAEAIYELTKDEEL	soluble
MTEQSAHEKYEFKKKLEGLRDKKGRSTELISLYIPPDKQIFDVTNQLKDEHGQAANIKSKLTRTNVQGAIESLLSRLRYLDKVPENGIVYFTGAVDIGANKTSMESEVIVPPDPITVYKYHCDSSFYLEPLEDMLKDKNTYGLLVLDRREATIGLLVGKRIQPFRNLTSTVPGKQRKGGQSAHRFQQLRLIAIHDFYKRIGDAASEVFMAVDHKDLKGVLIGGPSPTKEEFHAGEFLHHELMKKILGLFDTAYTDESGLSELVNAAGEKLQDLELMGQKNAVRDFFKELIADSGKVAYGESQVRANLEINSVDVLLLSEDLRAERVTTKCSVCGYENKWTRRWKPGEPAPAAGNCPKCGSSLEVTDVTDIVDEFSELADKSNAKVVFVSTDFDEGSQLMNAFGGIAAILRYNTGV	not soluble
MKALNREVIEYFKEHVNPGFLEYRKSVTAGGDYGAVEWQAGSLNTLVDTQGQEFIDCLGGFGIFNVGHRNPVVVSAVQNQLAKQPLHSQELLDPLRAMLAKTLAALTPGKLKYSFFCNSGTESVEAALKLAKAYQSPRGKFTFIATSGAFHGKSLGALSATAKSTFRKPFMPLLPGFRHVPFGNIEAMRTALNECKKTGDDVAAVILEPIQGEGGVILPPPGYLTAVRKLCDEFGALMILDEVQTGMGRTGKMFACEHENVQPDILCLAKALGGGVMPIGATIATEEVFSVLFDNPFLHTTTFGGNPLACAAALATINVLLEQNLPAQAEQKGDMLLDGFRQLAREYPDLVQEARGKGMLMAIEFVDNEIGYNFASEMFRQRVLVAGTLNNAKTIRIEPPLTLTIEQCELVIKAARKALAAMRVSVEEA	not soluble
MSLKFMYSALLGNPVEHSISDELFEYLNHNIGVLDEYKHKKILVDSVCLEDKIKHLINDPKCIGLNITLPYKREVMRYIDNLDRVAEITGSVNNIYKSGNIITGTNTDWKGIYNTLVFFNISHITKCCVLGTGGTARAAIFALQKLQISPTVVYREPISENTRSLIKSFPDLKYITYKELADQQILNDMEIIINTTPVGMINYEESLPINFDHLDNVNYKDKYFMDVVFNPLHTKLHEYFGKKGAKIIDGLWVLIFQGIEAFSLWSDKINDGKYFFSKDDVVLIHTFLEGKIKGKEGHHHHHH	soluble
MEAKEKKYGEIEIEKAQLEAWPNPNPERDYMIEITFPEFTCLCPRSGYPDFATIKIRYIPDKYIVELKSLKLWLNKFRNRYISHEAATNEIYQALYDLLKPRFLEVVGDFHPRGNVHTVVRVRSDENYGAAAAAALEHHHHHH	soluble
MGSDKIHHHHHHMSDPAGKPCIICVAITGSLPTKENNPAVPITLAEQVESTHEAFEAGASIAHCHVRDDEGRPTSDPDRFAALKEGLERHCPGMIVQLSTGGRSGAGQARGAMLPLCPDMASLSVGSNNFPTRVYENPPDLVDWLAAEMLKYDIKPEIEAFDLSHILQAKRMAGDGRLAGTPYVQFVMGVRNAMPADRDVFDYYIHTVRRLFGEDAPWCAAGIGPSQIVLNEWAISSGGHARTGLEDNVRLDRDRLAPSNAALVGRAVELCEKYERPVATWRQARQILGLRMV	not soluble
MSLSDDDVDNVIEVARDSWKWTYKDIYSDEFIENWISEKYSKEKLLNEITKSQLNLDLVFLGSFHESKLIGFIELKISSSKAELLRLYLRPEYTHRGVGRILLSEAEELVKKRDVEECILYVHKKNYIATSFYKKNGFQVKDIYGDDLIMIKRYKVEGHHHHHH	not soluble
MAAQRLGKRVLSKLQSPSRARGPGGSPGGLQKRHARVTVKYDRRELQRRLDVEKWIDGRLEELYRGMEADMPDEINIDELLELESEEERSRKIQGLLKSCGKPVEDFIQELLAKLQGLHRQPGLRQPSPSHDGSLSPLQDRARTAHP	soluble
MAHHHHHHMHRGPGKRQTAPKEAAQYQFIKKWDLQMRETWDELEPFKGLPKPKVQFGNEAAEVIWPYALLLENVIKVHPYTKSIYVYYSQRQSTPLGELAARVAKRVSQAYLIPITFHNSHVYVEAEMLLEYSETPWVVVHCLDGTHKLIPVKPQAGQTVKEGAEEVLNGIVSACNEIGSAVKNPKEVMRLLSERPLQNQYVRVNYQWYGDTPEERMSHLVKWDYEPEEVVPQLRNRTQHVLDWMNYDGNLPTHNSVRVNIHREAARMRKPNVSAGPKTFFNSSGSRANARTARFDNSRSSQS	not soluble
MKPTERRILLGRIVGAFGVKGELKLESWTEPRSAIFRYQPWIVRTPSGQESVLSGVRGRDQGKNLIAVFPDITDRDTVEAMHGTEIYVARSALPPPKPDEYYWVDLEGLQVETVEGVKLGTVSHLFSTGSNDVVVVRGDRERMIPFVLPEYVKSVDFEANLIVVDWDPDFLEHHHHHH	soluble
MSLKKEGDATAVLIGYPSVGKSTLLNKLTGAKSEVADYDFTTLKPVPGILNYKGASIQIIDVPGIIEGAASGRGRGKEVISAVRVADLIIIVADVFNLHTIDIVKRELYEGGIRLDQKPPDVVIRKKERGGVRISSTVPLSIDEATITSVLKEYKIHSADVVIREDITIERLIDALAGNRVYIPSLTVVNKIDLMDVDVADAIKVSAEKGINLDLLKEQIYRKLEFIRVYLKPPGGKVDFSEPMILRRGATVEDICRKLHRDFVENFRYAKVWGKSVKFDGQRVGLEHVVEDGDIITIYAEGHHHHHH	soluble
MPTVPFPILRLPNAILQRSLQQMSPIGLISLSVLSNNMKQIVTMPNNKSRFDGRISTTLPITLHLNVDRNSRHHYVEYAFQFNQSVLRIQDIRGQEPATLTKPGFTDKLWIEHVAEVLFQNKGVILSCDAPFRTYIKELLKNINVTLIAIRSSGFEVWKFFELFPSLEKVTFTEGPIPLSVLSRNLDGLKVNTKDVPLDDALTSNSLSFAMHRNSFTMKEINLFIKQWIRGCNPRLEMFQILFNDIERHLVLENVIFKGINYIEKRNRIVQCQEREEYRIERFDGTEALVWFNPNRFPFLEMTVMMNDDDDKLLV	not soluble
REQFGRDVMVVVDLSGSMAEKDFTSTNGLKISRLDAVKKVLNDFVKTRKGDRLGLILFGDAAFVQTPFTADHKVWLDLLNQTHVEMAGKSTHLGDAIGLTIKRFEDSNNSQPLSTTSREKVAIILTDGNDTDSYVPPMDAAKVAKVKGVRIHMIAIGDPQTVGEQALDMDTINTIADASGGQAFQALNQDELINAYAEISKLEPQLYQSTTYRT	not soluble
MANQLAAVLGTGQTHYVAKRHDVSMAGLVREAIDRAMEDARVGWDDIDAVVIGKAPDLFEGSMMPELAMSDALGANGKPLLRVHTAGSVGGSTAVVASSLVKSGVHKRVLTVAWEKQSESNAMWALSTPIPFHMPVGAGAGGYFAPHVRSYIRRSGAPDHIGAMVAVKDRLNGSLNPYAHLKQPDITLESVQASQMLWDPIRYDETCPSSDGACAMVIGNEEAAEQVTADGREVAWIHATAMRTEPTTFAGRDQVNPQAGRDAAAALWKAAGIKDPLDEIDVAEIYVPFSWFEPMWLENLGFVSEGEGWKLTEAGETAIGGRLPLNASGGVLSSNPIGASGMIRFAESAMQVMHRAGDHQVKDARKALGHAYGGGSQYFSMWVVGSDRPNN	not soluble
MGSDKIHHHHHHMALWQYSFRGGDDMKFAHLERLNLTLRALAPVFIGSGEQLGKKEYIFDSPNALIYFPDFPRLVAFLKERSLLAEYEKFLSTPRLKDIRVFLEENGISAADYPSFVRYSIAAGEAAHIENFREVLTFIKDSKGYPYIPGSSLKGAIRTALATYLLKRGDWERDRRNIEGSDSSVPARKYLARESSTVEKKVFYQLDIRNPKDGKEISSPINDLMQGIRISDSAALSFENLTLTGKYDRKPDGTVNLLPIFRECLTPGSEAHLQLTLDLPMLARVGLNAGIIEEALHDFADEHYAHFEQYFAELPEDASVAAKEGVDIFLGGGVGYVSKTLTYNLFPQRENAVSLAAKILTKQFSPKHGHSKDASQYKVSPHILKTTMYAGEYYHMGKCELIITR	not soluble

Reference: the DeepSol protein solubility set
